Test results reported in patent publication US20200325224A1.

How the values were obtained:
[1] = biological target: human CD3 epsilon (on human T cells / CD3-positive Jurkat E6-1 cells) (human) (UniProt P07766); experiment: FACS on expanded human T cells (hum PBL), antibody at 0.1 µg/ml, Alexa488-labelled secondary antibody, geomean of fluorescence
[2] = biological target: cynomolgus CD3 epsilon (on expanded cynomolgus T cells) (cynomolgus) (UniProt Q95LI5); experiment: FACS on expanded cynomolgus T cells (cyno PBL), antibody at 0.1 µg/ml, Alexa488-labelled secondary antibody, geomean of fluorescence
[3] = biological target: human CD3 epsilon (on human T cells / CD3-positive Jurkat E6-1 cells) (human) (UniProt P07766); experiment: FACS on expanded human T cells (hum PBL), antibody at 1 µg/ml, Alexa488-labelled secondary antibody, geomean of fluorescence
[4] = biological target: cynomolgus CD3 epsilon (on expanded cynomolgus T cells) (cynomolgus) (UniProt Q95LI5); experiment: FACS on expanded cynomolgus T cells (cyno PBL), antibody at 1 µg/ml, Alexa488-labelled secondary antibody, geomean of fluorescence
[5] = biological target: human CD3 epsilon (on human T cells / CD3-positive Jurkat E6-1 cells) (human) (UniProt P07766); experiment: FACS on expanded human T cells (hum PBL), antibody at 10 µg/ml, Alexa488-labelled secondary antibody, geomean of fluorescence
[6] = biological target: cynomolgus CD3 epsilon (on expanded cynomolgus T cells) (cynomolgus) (UniProt Q95LI5); experiment: FACS on expanded cynomolgus T cells (cyno PBL), antibody at 10 µg/ml, Alexa488-labelled secondary antibody, geomean of fluorescence

human CD3 epsilon (on human T cells / CD3-positive Jurkat E6-1 cells) (human), sequence (P07766 23-207 limits assumed): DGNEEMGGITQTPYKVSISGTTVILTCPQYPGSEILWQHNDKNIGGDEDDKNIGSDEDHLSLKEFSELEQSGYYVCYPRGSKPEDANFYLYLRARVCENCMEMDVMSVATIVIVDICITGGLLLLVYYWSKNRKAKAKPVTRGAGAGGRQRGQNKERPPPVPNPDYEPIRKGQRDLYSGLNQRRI
cynomolgus CD3 epsilon (on expanded cynomolgus T cells) (cynomolgus), sequence (Q95LI5 22-197 limits assumed): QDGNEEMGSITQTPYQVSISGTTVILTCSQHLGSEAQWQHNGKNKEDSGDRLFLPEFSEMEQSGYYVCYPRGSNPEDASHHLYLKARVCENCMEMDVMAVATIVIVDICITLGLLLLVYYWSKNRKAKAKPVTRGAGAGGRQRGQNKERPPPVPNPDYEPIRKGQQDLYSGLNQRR

Substance	geomean at 0.1 µg/ml [1]	geomean at 0.1 µg/ml [2]	geomean at 1 µg/ml [3]	geomean at 1 µg/ml [4]	geomean at 10 µg/ml [5]	geomean at 10 µg/ml [6]
hu-IgG1 (antibody)	54	61	56	64	85	67
Iso rb (antibody)	43	37	39	38	47	40
anti-CD3 reference antibody SP34-2	2610	5000	9610	16500	15900	19500
M-IgG1 (antibody)	40	33	42	33	44	34
